# B1: Camphor 5-monooxygenase, P00183 (parent)
# chain: MTTETIQSNANLAPLPPHVPEHLVFDFDMYNPSNLSAGVQEAWAVLQESNVPDLVWTRCNGGHWIATRGQLIREAYEDYRHFSSECPFIPREAGEAYDFIPTSMDPPEQRQFRALANQVVGMPVVDKLENRIQELACSLIESLRPQGQCNFTEDYAEPFPIRIFMLLAGLPEEDIPHLKYLTDQMTRPDGSMTFAEAKEALYDYLIPIIEQRRQKPGTDAISIVANGQVNGRPITSDEAKRMCGLLLVGGLDTVVNFLSFSMEFLAKSPEHRQELIERPERIPAACEELLRRFSLVADGRILTSDYEFHGVQLKKGDQILLPQMLSGLDERENACPMHVDFSRQKVSHTTFGHGSHLCLGQHLARREIIVTLKEWLTRIPDFSIAPGAQIQHKSGIVSGVQALPLVWDPATTKAV
# Variants of: B1
# Conditions: Pseudomonas putida; pH 7.4; Thermal; DSC; Tris 50 mM; KCl 100 mM; reversible: Yes; structure 2CPP; whole UniProt chain shown
Variant,Tm [°C],"change of melting temperature, mutant - wild type (higher = more stable) [°C]"
MTTETIQSNANLAPLPPHVPEHLVFDFDMYNPSNLSAGVQEAWAVLQESNVPDLVWTRCNGGHWIATRGQLIREAYEDYRHFSSECPFIPREAGEAYDFIPVSMDPPEQRQFRALANQVVGMPVVDKLENRIQELACSLIESLRPQGQCNFTEDYAEPFPIRIFMLLAGLPEEDIPHLKYLTDQMTRPDGSMTFAEAKEALYDYLIPIIEQRRQKPGTDAISIVANGQVNGRPITSDEAKRMCGLLLVGGLDTVVNFLSFSMEFLAKSPEHRQELIERPERIPAACEELLRRFSLVADGRILTSDYEFHGVQLKKGDQILLPQMLSGLDERENACPMHVDFSRQKVSHTTFGHGSHLCLGQHLARREIIVTLKEWLTRIPDFSIAPGAQIQHKSGIVSGVQALPLVWDPATTKAV [T102V],63.5,-1.8

# Reference: FireProtDB (doi:10.1021/bi060848l)
